Test results taken from patent US20240043534A1.

Target: Fab with CK (kappa) light chain constant domain
Assay: ELISA

fold lower EC50 for CK than for Cλ: 7 fold
Substance: wild type Protein G (wild-type non-modified protein G polypeptide)
